# Assay results published in PMC10175261.
# Biological target: PriA (Escherichia coli, UniProt P17888 1-732)
# Details: protein: recombinant; tags: N-terminal His; label: 5'-32P on 3L-98 (strand 2); fork 1:2 1:3; ssDNA lagging arm (strand 2)
binder,measurement,value
Fork 1 (structured_DNA) DNA 1: GCAAGCCTTCTACAGGTCGACCGTCCATGGCGACTCGAGACCGCAATACGGATAAGGGCTGAGCACGCCGACGAACATTCACCACGCCAGACCACGTA DNA 2: GACTATCTACGTCCGAGGCTCGCGCCGCAGACTCATTTAGCCCTTATCCGTATTGCGGTCTCGAGTCGCCATGGACGGTCGACCTGTAGAAGGCTTGC DNA 3: TACGTGGTCTGGCGTGGTGAATGTTCGTCGGCGTGCTC,binding signal,91.9 ± 4.1 % fork shifted
